# In patent US20200222503A1 (published 2020):
# T1: murine PD-L2 on CHOK1 cells (murine, UniProt Q9WUL5 20-247)
# T1 chain: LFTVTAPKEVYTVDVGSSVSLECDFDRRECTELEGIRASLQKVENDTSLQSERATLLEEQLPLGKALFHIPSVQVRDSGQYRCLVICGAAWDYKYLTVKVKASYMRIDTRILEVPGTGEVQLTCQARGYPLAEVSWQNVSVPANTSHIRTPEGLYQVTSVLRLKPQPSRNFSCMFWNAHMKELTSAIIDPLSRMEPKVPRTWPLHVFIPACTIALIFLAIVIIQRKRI
# T2: murine OX40 on CHOK1 cells (murine, UniProt P47741 20-272)
# T2 chain: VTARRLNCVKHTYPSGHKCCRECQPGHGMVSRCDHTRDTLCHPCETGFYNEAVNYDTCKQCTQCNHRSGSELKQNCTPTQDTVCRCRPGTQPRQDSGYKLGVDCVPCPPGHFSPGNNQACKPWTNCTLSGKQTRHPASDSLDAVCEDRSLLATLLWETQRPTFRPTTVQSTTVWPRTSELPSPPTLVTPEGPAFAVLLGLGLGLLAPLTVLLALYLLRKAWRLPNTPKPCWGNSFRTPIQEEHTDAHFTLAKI
# Assays:
# [1] = target: T1, murine PD-L2 on CHOK1 cells; experiment: flow cytometry cell binding
# [2] = target: T2, murine OX40 on CHOK1 cells; experiment: flow cytometry cell binding
# [3] = target: murine PD-L1 on CHOK1 cells (murine, UniProt Q9EP73 19-290); experiment: flow
# [4] = target: mCD40L-Fc; experiment: SPR
# Sequence of murine PD-L1 on CHOK1 cells (Q9EP73 19-290): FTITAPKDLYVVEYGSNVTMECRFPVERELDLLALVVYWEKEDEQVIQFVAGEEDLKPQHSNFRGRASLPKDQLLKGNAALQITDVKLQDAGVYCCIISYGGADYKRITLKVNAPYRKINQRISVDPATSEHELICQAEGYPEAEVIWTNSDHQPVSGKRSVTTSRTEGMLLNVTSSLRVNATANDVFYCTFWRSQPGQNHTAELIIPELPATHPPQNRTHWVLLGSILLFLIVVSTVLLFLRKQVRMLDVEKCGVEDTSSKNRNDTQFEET
Binder,EC50 [1],EC50 [2],EC50 [3],Kd [4]
murine PD-1-Fc-OX40L chimeric protein (Fc fusion) LEVPNGPWRSLTFYPAWLTVSEGANATFTCSLSNWSEDLMLNWNRLSPSNQTEKQAAFCNGLSQPVQDARFQIIQLPNRHDFHMNILDTRRNDSGIYLCGAISLHPKAKIEESPGAELVVTERILETSTRYPSPSPKPEGRFQGMSSSPAKDPPIQRLRGAVTRCEDGQLFISSYKNEYQTMEVQNNSVVIKCDGLYIIYLKGSFFQEVKIDLHFREDHNPISIPMLNDGRRIVFTVVASLAFKDKVYLTVNAPDTLCEHLQINDGELIVVQLTPGYCAPEGSYHSTVNQVPL,47.7 nM,6.28 nM,27.8 nM,
mCD40 (receptor) VTCSDKQYLHDGQCCDLCQPGSRLTSHCTALEKTQCHPCDSGEFSAQWNREIRCHQHRHCEPNQGLRVKKEGTAESDTVCTCKEGQHCTSKDCEACAQHTPCIPGFGVMEMATETTDTVCHPCPVGFFSNQSSLFEKCYPWTSCEDKNLEVLQKGTSQTNVICGLKSRMR,,,,3.23 nM
